Test results: US20250206820A1

B1: Hz45G10 Fab coupled with CD3 scFv 1G4 (bispecific antibody, part only; not given: CD3 scFv 1G4, V domains shown, part only)
VH: EVQLVESGGGLVQPGGSLRLSCAASGFTFSDYGMHWVRQAPGKGLEWVAYIFSGSSTIYYADTVKGRFTISRDNAKNSLYLQMNSLRAEDTAVYYCARADGRGAMDYWGQGTLVTVSS
VL: DIQMTQSPSSLSASVGDRVTITCRASQDISKFLNWYQQKPGKAPKLLIYYTSRLHSGVPSRFSGSGSGTDFTFTISSLQPEDIATYFCQQGNTLPWTFGGGTKLEIK
B2: 16C5 Fab coupled with CD3 scFv 1G4 (bispecific antibody, part only; not given: CD3 scFv 1G4, V domains shown, part only)
VH: EVQLQQSGPELVKPGASVKISCKASGYTFTDYNMDWVKQSHGKSLEWIGYIYPSNGGTGYNQKFKSKATLTVDKSSNTAYMELHSLTSEDSAVYYCARVPYYDYLYYYAMDYWGQGTSVTVSS
VL: QIVLSQSPAILSASPGEKVTMACRASSSVSFMHWYQQKPGSSPQPWIYATSNLASGVPARFSGSGSGTSYSLTISRVEAEDAATYYCQQWSTNPYMYTFGGGTKLEIK
B3: 12A12 Fab coupled with CD3 scFv 2B2 (bispecific antibody, part only; not given: CD3 scFv 2B2, V domains shown, part only)
VH: EVQLQQSGPELVKPGASVKISCKASGYTFTDYNMDWVKQSHGKSLEWIGYIYPNNGGTGYNQKFNSKATLTVDKSSSTAYMELHSLTSEDSAVYYCASSPYYDYVGSYAMDYWGQGTSVTVSS
VL: QIVLTQSPAIMSASLGERVTMTCTASSSVSSSYLHWYQQKPGSSPKLWIYSTSNLASGVPARFSGSGSGTSYSLTISSMEAEDAATYYCHQYHRSPRTFGGGTKLEIK
B4: 16C5 Fab coupled with CD3 scFv 2B2 (bispecific antibody, part only; not given: CD3 scFv 2B2, V domains shown, part only)
VH: EVQLQQSGPELVKPGASVKISCKASGYTFTDYNMDWVKQSHGKSLEWIGYIYPSNGGTGYNQKFKSKATLTVDKSSNTAYMELHSLTSEDSAVYYCARVPYYDYLYYYAMDYWGQGTSVTVSS
VL: QIVLSQSPAILSASPGEKVTMACRASSSVSFMHWYQQKPGSSPQPWIYATSNLASGVPARFSGSGSGTSYSLTISRVEAEDAATYYCQQWSTNPYMYTFGGGTKLEIK
B5: 12A12 Fab coupled with CD3 scFv 1G4 (bispecific antibody, part only; not given: CD3 scFv 1G4, V domains shown, part only)
VH: EVQLQQSGPELVKPGASVKISCKASGYTFTDYNMDWVKQSHGKSLEWIGYIYPNNGGTGYNQKFNSKATLTVDKSSSTAYMELHSLTSEDSAVYYCASSPYYDYVGSYAMDYWGQGTSVTVSS
VL: QIVLTQSPAIMSASLGERVTMTCTASSSVSSSYLHWYQQKPGSSPKLWIYSTSNLASGVPARFSGSGSGTSYSLTISSMEAEDAATYYCHQYHRSPRTFGGGTKLEIK
B6: 3A3 Fab coupled with CD3 scFv 2B2 (bispecific antibody, part only; not given: CD3 scFv 2B2, V domains shown, part only)
VH: QVQLKESGPGLVAPSQSLSITCTVSGFSLTSYGVHWVRQPPGKGLEWLGVIWPGGTINYNSALMSRLSISKDNSKSQVFLKLNSLQTDDTAMYYCASDKYDGGWFAYWGQGTLVTVSA
VL: DIVMTQSQKFMSTSVGDRVSITCKASQNVRTAVAWYQQKPGQSPEALIYLASNRHTGVPDRFTGSGSGTDFSLSISNVQSEDLADYFCLQHLNYPLTFGSGTKLEIK
B7: 3A3 Fab coupled with CD3 scFv 1G4 (bispecific antibody, part only; not given: CD3 scFv 1G4, V domains shown, part only)
VH: QVQLKESGPGLVAPSQSLSITCTVSGFSLTSYGVHWVRQPPGKGLEWLGVIWPGGTINYNSALMSRLSISKDNSKSQVFLKLNSLQTDDTAMYYCASDKYDGGWFAYWGQGTLVTVSA
VL: DIVMTQSQKFMSTSVGDRVSITCKASQNVRTAVAWYQQKPGQSPEALIYLASNRHTGVPDRFTGSGSGTDFSLSISNVQSEDLADYFCLQHLNYPLTFGSGTKLEIK
B8: 53F10 Fab coupled with CD3 scFv 2B2 (bispecific antibody, part only; not given: CD3 scFv 2B2, V domains shown, part only)
VH: EVQVVESGGGLVKPGGSLKLSCAASGFTFSDYGMHWVRQAPEKGLEWVAYISTGIITVYYADTVKGRFTMSRDNAKNTLFLQMTSLRSEDTAIYYCARADGRGAMDYWGQGTSVIVSS
VL: DIQMTQTTSSLSASLGDRVTISCRASQDISNFLNWYQQKPDGTVTLLIYYTSRLHSGVPSRFSGSGSGTDYSLTISNLEQEDFATYFCQQGNTLPWTFGGGTKLEIK
B9: 53F10 Fab coupled with CD3 scFv 1G4 (bispecific antibody, part only; not given: CD3 scFv 1G4, V domains shown, part only)
VH: EVQVVESGGGLVKPGGSLKLSCAASGFTFSDYGMHWVRQAPEKGLEWVAYISTGIITVYYADTVKGRFTMSRDNAKNTLFLQMTSLRSEDTAIYYCARADGRGAMDYWGQGTSVIVSS
VL: DIQMTQTTSSLSASLGDRVTISCRASQDISNFLNWYQQKPDGTVTLLIYYTSRLHSGVPSRFSGSGSGTDYSLTISNLEQEDFATYFCQQGNTLPWTFGGGTKLEIK
B10: 48A6 Fab coupled with CD3 scFv 2B2 (bispecific antibody, part only; not given: CD3 scFv 2B2, V domains shown, part only)
VH: EVQLVESGGDLMKPGGSLKLSCAASGFTFSSYGMSWVRQTPDKRLEWVATISSGGTYTFYPDSVKGRFTISRDNAKNTLYLQMSSLKSEDTAMYYCARRGWLLHYYAMDYWGQGTSVTVSS
VL: NIVLTQSPASLAVSLGQRATISCRPSESVDSFGNSFMHWFQQKPGQPPKLLIYLSSKLESGVPARFSGSGSRTDFTLTIDPVEADDAATYYCQQHNEDPFTFGSGTKLEIK
B11: 48A6 Fab coupled with CD3 scFv 1G4 (bispecific antibody, part only; not given: CD3 scFv 1G4, V domains shown, part only)
VH: EVQLVESGGDLMKPGGSLKLSCAASGFTFSSYGMSWVRQTPDKRLEWVATISSGGTYTFYPDSVKGRFTISRDNAKNTLYLQMSSLKSEDTAMYYCARRGWLLHYYAMDYWGQGTSVTVSS
VL: NIVLTQSPASLAVSLGQRATISCRPSESVDSFGNSFMHWFQQKPGQPPKLLIYLSSKLESGVPARFSGSGSRTDFTLTIDPVEADDAATYYCQQHNEDPFTFGSGTKLEIK

target: ILT3 on target cells (MOLM13, OCI-AML-2, NALM-1, THP-1, MM1S, H929, U226B1 and other lines) (human) (UniProt Q8NHJ6); test: cell-based or functional assay
Sequence (Q8NHJ6 22-448, one chain of several): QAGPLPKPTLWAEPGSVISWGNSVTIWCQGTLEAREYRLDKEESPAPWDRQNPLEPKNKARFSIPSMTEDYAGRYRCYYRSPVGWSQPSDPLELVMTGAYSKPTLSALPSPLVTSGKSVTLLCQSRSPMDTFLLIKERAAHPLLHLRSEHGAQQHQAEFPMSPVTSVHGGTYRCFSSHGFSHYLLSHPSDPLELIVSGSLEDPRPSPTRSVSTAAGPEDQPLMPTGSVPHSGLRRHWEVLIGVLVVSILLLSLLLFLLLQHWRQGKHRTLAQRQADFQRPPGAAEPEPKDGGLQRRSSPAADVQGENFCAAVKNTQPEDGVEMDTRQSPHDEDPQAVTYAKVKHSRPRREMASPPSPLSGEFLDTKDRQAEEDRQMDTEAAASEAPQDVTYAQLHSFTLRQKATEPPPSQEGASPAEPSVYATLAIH

In order of rising TDCC, EC50:
1. B8  0.013 nM
2. B10  0.025 nM
3. B6  0.4 nM
4. B11  0.5 nM
5. B1  1.26 nM
6. B9  2 nM
7. B3  3.16 nM
8. B4  3.16 nM
9. B2  50.1 nM
10. B7  50.1 nM
11. B5  251 nM

In order of rising TNF-α, EC50 (nM), cytokine release in the TDCC co-culture:
1. B8  2 nM
2. B10  2.51 nM
3. B6  79.4 nM
4. B4  398 nM
5. B3  2510 nM
